Blank lines part the entries; values can stand above or below the binder they belong to.
How the values were obtained:
CLL-1 on U937 cells [1] = target: T1, CLL-1 on U937 cells (human, UniProt Q5QGZ9 1-265); test: flow cytometry on U937 cells, clone lysate, anti-cMyc-PE (Table 3 summary)
T1 construct: whole, on cells; also called CLEC12A; Clec12A
T1 sequence: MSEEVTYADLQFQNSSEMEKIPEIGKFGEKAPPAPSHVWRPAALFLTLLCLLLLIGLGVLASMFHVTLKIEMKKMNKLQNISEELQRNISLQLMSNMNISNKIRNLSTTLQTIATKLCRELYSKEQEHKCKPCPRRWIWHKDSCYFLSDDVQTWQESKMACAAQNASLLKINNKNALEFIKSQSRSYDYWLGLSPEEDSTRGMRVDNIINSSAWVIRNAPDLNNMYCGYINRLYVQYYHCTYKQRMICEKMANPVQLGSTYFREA

CLL-1 on U937 cells [2] = target: T1, CLL-1 on U937 cells; test: flow cytometry on U937 cells, VHH at 3 ug/ml, detected with a-His-PE; a-His-PE alone 1.1% and 5,576.5, unstained 0.6% and 5,793.5
Description: U937 cell binding by VHH clones was assessed. Briefly, the method included: U937 cells (2.5×10\hat{ }5) were Fc blocked (human Fc block, BD Cat. #BDB564220) for 10 min at room temperature, then washed once with FACS buffer (PBS+1% BSA+0.1% Sodium Azide) by spinning at 500G for 2 min; VHH clones (3 μg/ml as final conc) in FACS buffer were added to the cell pellets and incubated for 30 min at 4° C., then washed twice with FACS buffer by spinning at 500G for 2 min; anti-His-PE (R&D Systems, Cat. #IC050P) was added to cells; the mixture was incubated for 30 min at 4° C. and washed twice with FACS buffer by spinning at 500G for 2 min; 1% PFA (Paraformaldehyde) in PBS was added to cell pellet to fix the cells, followed by FACS analysis. VHH clones tested: 1B5: stock=1.6 mg/ml; 1H1: stock=1.9 mg/ml; 1G6: stock=1.1 mg/ml; 2F3: stock=1.45 mg/ml; 2F5: stock=0.5 mg/ml; 2H3: stock=2 mg/ml. As shown in FIGS. 2A-2C, binding of clones 1H1, 1G6, 2F5 and 2H3 to U937 cells was detected with anti-His-PE; very little binding of clones 1B5 and 2F3 to U937 cells could be detected by anti-His-PE.

CLL-1 on U937 cells [3] = target: T1, CLL-1 on U937 cells; test: flow cytometry on U937 cells, VHH in 3-fold dilutions, detected with a-His-PE; percent of cells positive
Description: (§1) U937 cell binding by VHH clones was assessed using varying doses to determine EC50s. Briefly, the method included: VHH clones (3 ug/ml as starting conc./test, with 3× serial dilutions) in FACS buffer were added to Fc blocked U937 or 293T-CLL1 cells (2.5×10\hat{ }5), the mixtures were incubated for 30 min at 4° C., then washed twice with FACS buffer by spinning at 500G for 2 min; anti-His-PE was added to cells, the mixture was incubated for 30 min at 4° C. and washed twice with FACS buffer by spinning at 500G for 2 min; 1% PFA (Paraformaldehyde) in PBS was added to cell pellet to fix the cells, followed by FACS analysis. VHH clones tested: 1B5: stock=1.6 mg/ml; 1H1: stock=1.9 mg/ml; 1G6: stock=1.1 mg/ml; 2F3: stock=1.45 mg/ml; 2F5: stock=0.5 mg/ml; 2H3: stock=2 mg/ml.

CLL-1 on U937 cells [4] = target: T1, CLL-1 on U937 cells; test: flow cytometry on U937 cells, % binding against ng/ml, detected with a-His-PE; EC50 of the fitted curve; the curve of 1H1 reaches about 70% at 3000 ng/ml without a plateau
Description: as §1

[5] = target: T2, Clec12A-His (Sino Biological, 11896-H07H) (human, UniProt Q5QGZ9 65-265); test: ELISA on plate coated with CLEC12a-His; unlabeled VHH at 10 ug/ml first, biotinylated VHH at 0.2 ug/ml second, streptavidin-HRP
T2 construct: Bought soluble protein; also called soluble CLEC12a-His; Sino Biological Clec12A
T2 chain: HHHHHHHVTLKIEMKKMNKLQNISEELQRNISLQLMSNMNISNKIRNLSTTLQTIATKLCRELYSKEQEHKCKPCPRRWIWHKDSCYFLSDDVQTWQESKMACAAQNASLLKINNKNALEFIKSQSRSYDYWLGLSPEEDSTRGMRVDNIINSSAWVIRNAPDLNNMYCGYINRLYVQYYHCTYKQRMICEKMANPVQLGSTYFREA
Description: ELISAs were used to determine if the VHH clones recognized distinct or similar epitopes. […] The plate was blocked with 0.3% nonfat milk in TBS (200 ul/well) for 1 hr at RT. The plates were washed 3× with 1×TBST (0.1 M Tris, 0.5 M NaCl and 0.05% Tween-20). The test anti-CLEC12a VHHs were added at 10 ug/ml horizontally across the plate, 100 ul per well and incubated for 1 h. Without washing, the test anti-CLEC12a biotinylated VHHs were added at 0.2 ug/ml vertically down the plate, 100 ul per well and incubate for 1 h. After being washed 3× with 1×TBST, HRP-conjugated streptavidin (Pierce #21130) at 1:2000 (100 ul/well) was added, followed by incubation at RT in the dark for 1 hr. For detection, 1-Step Ultra TMB-ELISA reagent (Thermo Fisher #34028) was added at 100 ul per well and read at 450 nm. […] The 1H1 VHH was distinct from these, and 2C2 was intermediate. Results are depicted in FIGS. 7A-7D.

CLL-1 on U937 cells [6] = target: T1, CLL-1 on U937 cells; test: flow cytometry on U937 cells, 3x serial dilutions from 3 ug/ml, anti-His-PE
Description: as §1

B1: VHH clone 1B11 (VHH)
VHH: AVQLQESGGGLVQAGGSLRLSCAASGSDRSINVMNWYRQAPGKQRELVAAITSGGTTNYAQSVKGRVTISRDSAKNTVYLQMNSLKPEDTAVYFCKADTRWGGMYWGPGTQVTVSS
notes: Includes myc and His tags
% FACS positive (CLL-1 on U937 cells [1]): 77.8%

B2: VHH clone 1B5 (VHH)
VHH: QVQLQESGGGLVQAGGSLRLSCVVSGATSNVNAMGWYRQAPGKERELVAAISSGGSTSYRDSVKGRFTISRDNAKNTLYLQMNSLKPEDTAMYYCAAQDWATEGYEYDYWGQGTLVTVSS
notes: Includes myc and His tags
% of This Plot (R3 PE+) (CLL-1 on U937 cells [2]): 2.3% | Mean FL2-A (R3 gate) (CLL-1 on U937 cells [2]): 4130

B3: VHH clone 2A8 (VHH)
VHH: QVQLQAFGGGMVQAGESLRLSCVASGNDISGSAMAWYRAHLGAERELVAVDAPRERPFYIDPVIGRFTISRDDRNKMLYLQMNDLRPDDTATYWCGPSLRTFHGREWYRPPWFTSWGQGTQVTVSS
notes: Includes myc and His tags
% FACS positive (CLL-1 on U937 cells [1]): 40.1%

B4: VHH clone 1H1 (VHH)
VHH: QVQLQESGGGLVQPGGSLRLSCAASGFTFNSYAMTWVRQAPGKGLEWVSDINSGGGSTNYADSVKGRFTISRDNAKNTLYLQMNSLKPEDTAVYYCATELRGSDYYRGPIREYAYWGQGTLVTVSS
notes: includes myc and His tags; also called 2F4
% binding at 1.4 ng/ml (CLL-1 on U937 cells [3]): 0.6% | % binding at 4.1 ng/ml (CLL-1 on U937 cells [3]): 0.7% | % binding at 12.3 ng/ml (CLL-1 on U937 cells [3]): 0.7% | % binding at 37.0 ng/ml (CLL-1 on U937 cells [3]): 0.9% | % binding at 111.1 ng/ml (CLL-1 on U937 cells [3]): 2.1% | % binding at 333.3 ng/ml (CLL-1 on U937 cells [3]): 10.4% | % binding at 1000 ng/ml (CLL-1 on U937 cells [3]): 35.7% | % binding at 3000 ng/ml (CLL-1 on U937 cells [3]): 71% | EC50 (CLL-1 on U937 cells [4]): 1.37 µg/mL | binding result [5]: binds | % FACS positive (CLL-1 on U937 cells [1]): 10.8% | % of This Plot (R3 PE+) (CLL-1 on U937 cells [2]): 88.6% | Mean FL2-A (R3 gate) (CLL-1 on U937 cells [2]): 6730 | EC50 (CLL-1 on U937 cells [6]): 81 nM

Second part, the binder after the results:

binding result [5]: binds | % FACS positive (CLL-1 on U937 cells [1]): 84.9%
B5: VHH clone 1A10 (VHH)
VHH: QVQLQESGGGLVQVGESLRLSCVVSGDTRSINLMGWYRQAPGKQRELVAACASDGNTYYADSVKGRFTISRDNAEKTVYLQMNNLKPDDTAVYYCDANSRGNYYSGQGTLVTVSS
notes: Includes myc and His tags

% FACS positive (CLL-1 on U937 cells [1]): 59.7%
B6: VHH clone 2G10 (VHH)
VHH: QVQLQQSGGGLVQAGGSLRLSCAASGSIFSINAMGWYRQAPGKRREMVAVVSRFGETTYTGSVKGRFTISRINRNNTVFLQMNRLKPEDTAVYYCNARIRGNYGSRIDYWGQGTQVTVSS
notes: Includes myc and His tags

binding result [5]: binds
B7: VHH clone 1B1 (VHH)
VHH: QVQLQESGGGLVQAGGSLRLSCAASGSIFAINEINLMGWYRQAPGKQRELVAACASDGNTYYADSVKGRFTISRDNAEKTVYLQMNNLKPDDTAVYYCDANSRGNYYSGQGTQVTVSS
notes: also called 2A6; 2A10
